Experimental data taken from patent US20040253247A1 (Genentech, published 2004).
Like-named read-outs stand apart in the source and are kept apart here. Bridges are numbered along the chain shown (N, C = ends). Where no end group is shown, it is not given here. code n = not defined here

Legend:
[1] = target: T1, rabbit albumin (rabbit, UniProt P49065 25-608); experiment: SA08b binding assay: competition with biotinylated SA08b for immobilized albumin
Experimental: (§1) Plates were blocked using Blocker Casein (Pierce Chemical, Rockford, Ill.) for 1 hr, at 25° C. […] The amount of HRP bound was measured using ABTS/H₂O₂ substrate and monitoring the change at 405 nm.

[2] = target: T2, mouse albumin (mouse, UniProt P07724 25-608); experiment: as above
Experimental: as §1

[3] = target: T3, rat albumin (rat, UniProt P02770 25-608); experiment: as above
Experimental: as §1

[4] = target: T1, rabbit albumin; experiment: phage ELISA
Experimental: (§2) Phage ELISA—Phage clones (˜10¹¹ phage) were added to plates coated with rat, rabbit or human albumin. The microtiter plate was washed with wash buffer and bound phage were detected with HRP/Anti-M13 Conjugate. The amount of HRP bound was measured using ABTS/H₂O₂ substrate and monitoring the change at 405 nm.
(§3) This was tested using a phage ELISA.

[5] = target: T3, rat albumin; experiment: phage ELISA
Experimental: as §2, §3

[6] = target: T4, human albumin (human, UniProt P02768 25-609); experiment: phage ELISA
Experimental: as §2, §3

[7] = target: T3, rat albumin; experiment: SA08b competition binding assay with a rat albumin coat
Experimental: as §1

[8] = target: T2, mouse albumin; experiment: SA08b competition binding assay with a mouse albumin coat
Experimental: as §1

[9] = target: T1, rabbit albumin; experiment: SA08b competition binding assay with a rabbit albumin coat
Experimental: as §1

[10] = target: T1, rabbit albumin; experiment: phage ELISA; remark: listed apart in the source
Experimental: as §2

[11] = target: T5, ovalbumin (UniProt P01012 2-386); experiment: phage ELISA, photograph of the plate
T5 sequence (looked up): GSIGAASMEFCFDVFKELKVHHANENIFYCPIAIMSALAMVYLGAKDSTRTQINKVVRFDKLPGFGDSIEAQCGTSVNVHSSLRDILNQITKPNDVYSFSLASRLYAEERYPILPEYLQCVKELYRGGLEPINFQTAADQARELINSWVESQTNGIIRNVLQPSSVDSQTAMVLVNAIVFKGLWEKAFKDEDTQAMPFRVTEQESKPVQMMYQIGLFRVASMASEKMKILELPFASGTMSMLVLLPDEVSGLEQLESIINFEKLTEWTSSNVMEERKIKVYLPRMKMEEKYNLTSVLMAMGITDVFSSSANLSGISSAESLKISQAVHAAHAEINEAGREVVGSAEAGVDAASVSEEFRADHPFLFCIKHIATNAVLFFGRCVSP

[12] = target: T2, mouse albumin; experiment: phage ELISA, photograph of the plate
[13] = target: T3, rat albumin; experiment: phage ELISA, photograph of the plate
[14] = target: T4, human albumin; experiment: phage ELISA; remark: listed apart in the source
Experimental: as §2

[15] = target: bovine albumin (bovine, UniProt P02769 25-607); experiment: phage ELISA, photograph of the plate
[16] = target: rhesus albumin (rhesus, UniProt Q28522 17-600); experiment: phage ELISA, photograph of the plate
[17] = target: T4, human albumin; experiment: phage ELISA, photograph of the plate
[18] = target: T6, IgG-Fc (UniProt P01857-1 108-330 = IgG part, limits assumed); experiment: competition ELISA against immobilized Protein A Z-domain for biotinylated IgG-Fc; IC50 extrapolated to zero IgG-Fc
T6 construct: domain: IgG-Fc; also called biotinylated-IgG-Fc; biotin-IgG-Fc
Experimental: Competition ELISAs were performed in a manner similar to the method described in H. B. Lowman, et al., supra. […] Plates were then washed and developed as described using avidin/HRP conjugate. Inhibition curves were then computed for each concentration of biotin-IgG-Fc, and then the curve of half-maximal inhibition, “IC₅₀”, was extrapolated to zero biotin-IgG-Fc concentration in order to obtain a Kᵢ.

T2 sequence (P07724 25-608 limits assumed): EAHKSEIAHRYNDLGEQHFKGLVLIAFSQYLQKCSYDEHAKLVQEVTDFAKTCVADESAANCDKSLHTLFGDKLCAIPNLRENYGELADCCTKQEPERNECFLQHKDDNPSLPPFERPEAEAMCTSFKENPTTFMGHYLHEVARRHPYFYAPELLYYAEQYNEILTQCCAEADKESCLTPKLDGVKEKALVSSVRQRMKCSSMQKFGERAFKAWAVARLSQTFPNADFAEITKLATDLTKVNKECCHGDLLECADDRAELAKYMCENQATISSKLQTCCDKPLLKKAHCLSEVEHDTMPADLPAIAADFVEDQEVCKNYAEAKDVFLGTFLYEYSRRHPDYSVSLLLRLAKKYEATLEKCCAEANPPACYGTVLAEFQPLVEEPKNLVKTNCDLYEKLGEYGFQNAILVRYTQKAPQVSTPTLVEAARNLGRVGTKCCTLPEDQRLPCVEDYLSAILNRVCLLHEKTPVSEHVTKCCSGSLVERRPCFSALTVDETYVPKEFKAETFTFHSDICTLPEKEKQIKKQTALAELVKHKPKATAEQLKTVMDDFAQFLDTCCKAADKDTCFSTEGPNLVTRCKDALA
Chain of rhesus albumin (Q28522 17-600 limits assumed): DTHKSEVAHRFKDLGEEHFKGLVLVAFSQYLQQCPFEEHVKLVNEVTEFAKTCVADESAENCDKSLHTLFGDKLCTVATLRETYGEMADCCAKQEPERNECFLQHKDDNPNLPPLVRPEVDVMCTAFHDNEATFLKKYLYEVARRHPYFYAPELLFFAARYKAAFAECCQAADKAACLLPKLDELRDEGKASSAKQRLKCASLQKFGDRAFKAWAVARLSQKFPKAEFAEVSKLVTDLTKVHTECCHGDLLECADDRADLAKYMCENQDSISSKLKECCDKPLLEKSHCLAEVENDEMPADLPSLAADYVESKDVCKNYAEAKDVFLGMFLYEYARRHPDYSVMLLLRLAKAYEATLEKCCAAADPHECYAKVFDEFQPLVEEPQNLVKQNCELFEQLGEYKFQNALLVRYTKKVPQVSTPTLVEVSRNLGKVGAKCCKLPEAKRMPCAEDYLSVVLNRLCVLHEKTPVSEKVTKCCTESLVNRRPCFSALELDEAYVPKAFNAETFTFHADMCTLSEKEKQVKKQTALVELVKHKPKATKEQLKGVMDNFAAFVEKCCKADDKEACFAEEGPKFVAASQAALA
T1 sequence (P49065 25-608 limits assumed): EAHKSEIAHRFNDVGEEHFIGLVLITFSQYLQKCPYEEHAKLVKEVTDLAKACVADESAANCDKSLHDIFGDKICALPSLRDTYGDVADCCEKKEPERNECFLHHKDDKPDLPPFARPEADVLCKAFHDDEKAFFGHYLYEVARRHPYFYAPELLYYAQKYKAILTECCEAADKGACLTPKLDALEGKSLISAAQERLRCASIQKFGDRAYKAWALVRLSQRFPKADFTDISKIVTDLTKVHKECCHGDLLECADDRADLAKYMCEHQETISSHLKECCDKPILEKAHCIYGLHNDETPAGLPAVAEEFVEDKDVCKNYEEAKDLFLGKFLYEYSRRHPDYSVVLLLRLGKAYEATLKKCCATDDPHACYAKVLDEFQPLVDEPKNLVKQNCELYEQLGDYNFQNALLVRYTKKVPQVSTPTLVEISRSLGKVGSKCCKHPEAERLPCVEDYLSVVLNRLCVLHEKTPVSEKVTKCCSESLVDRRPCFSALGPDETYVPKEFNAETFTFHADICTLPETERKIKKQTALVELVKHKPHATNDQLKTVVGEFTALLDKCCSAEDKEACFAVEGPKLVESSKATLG
Chain of bovine albumin (P02769 25-607 limits assumed): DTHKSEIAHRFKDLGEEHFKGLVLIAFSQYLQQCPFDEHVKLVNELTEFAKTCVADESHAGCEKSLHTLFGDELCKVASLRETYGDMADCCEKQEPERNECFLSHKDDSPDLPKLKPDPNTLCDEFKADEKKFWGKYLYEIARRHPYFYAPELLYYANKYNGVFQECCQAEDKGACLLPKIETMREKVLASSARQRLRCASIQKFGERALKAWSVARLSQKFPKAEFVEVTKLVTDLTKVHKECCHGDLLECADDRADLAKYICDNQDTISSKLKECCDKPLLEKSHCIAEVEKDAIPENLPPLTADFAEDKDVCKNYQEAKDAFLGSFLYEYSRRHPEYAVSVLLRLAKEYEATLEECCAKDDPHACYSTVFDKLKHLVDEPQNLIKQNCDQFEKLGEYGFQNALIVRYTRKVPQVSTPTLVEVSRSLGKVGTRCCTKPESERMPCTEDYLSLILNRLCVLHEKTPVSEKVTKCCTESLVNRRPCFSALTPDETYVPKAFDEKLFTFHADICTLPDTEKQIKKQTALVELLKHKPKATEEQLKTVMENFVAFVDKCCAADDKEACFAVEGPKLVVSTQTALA
T3 sequence (P02770 25-608 limits assumed): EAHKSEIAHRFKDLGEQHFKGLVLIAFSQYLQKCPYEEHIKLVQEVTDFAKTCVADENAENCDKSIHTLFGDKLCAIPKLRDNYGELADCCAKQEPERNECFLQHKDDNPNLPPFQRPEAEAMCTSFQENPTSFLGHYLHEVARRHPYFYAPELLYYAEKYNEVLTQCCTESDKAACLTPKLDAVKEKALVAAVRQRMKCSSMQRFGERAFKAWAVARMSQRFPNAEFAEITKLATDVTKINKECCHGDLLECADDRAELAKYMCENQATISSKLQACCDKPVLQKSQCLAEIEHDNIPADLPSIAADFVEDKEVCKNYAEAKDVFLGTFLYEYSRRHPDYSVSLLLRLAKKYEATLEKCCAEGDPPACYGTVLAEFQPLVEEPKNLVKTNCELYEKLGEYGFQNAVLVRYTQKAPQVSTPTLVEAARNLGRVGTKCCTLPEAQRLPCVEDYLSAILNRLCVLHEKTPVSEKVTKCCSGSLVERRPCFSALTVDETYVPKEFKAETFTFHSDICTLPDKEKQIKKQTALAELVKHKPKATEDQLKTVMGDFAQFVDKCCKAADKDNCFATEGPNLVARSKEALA

B1: SA07 (peptide)
peptide: QGLIGDICLPRWGCLWGDSV-{code n}
modifications: disulfide 8-14 (inferred); reading uncertain; also: printed as Gln-Gly-Leu-Ile-Gly-Asp-Ile-Cys-Leu-Pro-Arg-Trp-Gly-Cys-Leu-Trp-Gly-Asp-Ser-Val
notes: synthesized peptide
For B1, the IC50 [1] was 30 nM, the IC50 [2] was 6 nM and the IC50 [3] was 35 nM.

B2: HA (peptide)
peptide: EVRSFCTDWPAEKSCKPLRG
modifications: not fully specified (bridges); printed as Glu-Val-Arg-Ser-Phe-Cys-Thr-Asp-Trp-Pro-Ala-Glu-Lys-Ser-Cys-Lys-Pro-Leu-Arg-Gly; cysteine pairing not given here
notes: phage clone selected on human SA
B2: no binding [4]; no binding [5]; binds [6].

B3: HB (peptide)
peptide: RAPESFVCYWETICFERSEQ
modifications: not fully specified (bridges); printed as Arg-Ala-Pro-Glu-Ser-Phe-Val-Cys-Tyr-Trp-Glu-Thr-Ile-Cys-Phe-Glu-Arg-Ser-Glu-Gln; cysteine pairing not given here
notes: as for B2
B3: no binding [4]; binds [5]; binds [6].

B4: HC (peptide)
peptide: EMCYFPGICWM
modifications: not fully specified (bridges); printed as Glu-Met-Cys-Tyr-Phe-Pro-Gly-Ile-Cys-Trp-Met; cysteine pairing not given here
notes: as for B2
B4: no binding [4]; binds [5]; binds [6].

KSCSELHWLLVEECLF (phage clone selected on rabbit SA) [BD]: no binding [5]; no binding [6].

DTCVDLVRLGLECWG (phage clone selected on rat SA) [RD]: no binding [4]; no binding [6].

RNEDPCVVLLEMGLECWEGV (phage clone selected on rat SA) [RA]: no binding [4]; no binding [6].

DLCLRDWGCLW (phage clone selected on rat SA) [RC]: no binding [4]; no binding [6].

GENWCDSTLMAYDLCGQVNM (phage clone selected on rabbit SA) [BA]: no binding [5]; no binding [6].

CGCVDVSDWDCWSECLWSHGA (phage clone selected on rat SA) [RE]: no binding [4]; no binding [6].

B5: SA09 (peptide)
peptide: Ac-EDICLPRWGCLWEDD-{code n}
modifications: disulfide 4-10 (inferred); reading uncertain; also: printed as Glu-Asp-Ile-Cys-Leu-Pro-Arg-Trp-Gly-Cys-Leu-Trp-Glu-Asp-Asp
notes: synthesized peptide
Binder B5 has an IC50 [1] of 1690 nM, an IC50 [2] of 6 nM and an IC50 [3] of 258 nM.

B6: SA06 (peptide)
peptide: QRLMEDICLPRWGCLWEDDF-{code n}
modifications: disulfide 8-14 (inferred); not fully specified; reading uncertain
notes: synthesized peptide; also called Peptide SA06
With B6 the IC50 [1] was 128 nM, the IC50 [2] was 8 nM and the IC50 [3] was 68 nM. It also gave an IC50 [7] of 61 nM, an IC50 [8] of 8 nM and an IC50 [9] of 174 nM.

RAAESSVCYWPGICFDRTEQ (not fully specified (bridges); cysteine pairing not given here, phage clone, Library HB) [HB-H2]: no binding [10]; no binding [11]; no binding [12]. RAAESSVCYWPGICFDRTEQ (not fully specified (bridges); cysteine pairing not given here, phage clone, Library HB) [HB-H2]: no binding [13].

GEDWCDSTLLAFDLCGEGAR (phage clone, Library BA) [BA-B44]: no binding [14]; no binding [11]; no binding [12]. GEDWCDSTLLAFDLCGEGAR (phage clone, Library BA) [BA-B44]: no binding [15]; no binding [16]; no binding [13].

EEDLCLPVWGCLWGA (not fully specified (bridges); cysteine pairing not given here, phage clone, Library RBC) [RBC-R14]: no binding [10]; no binding [14]; no binding [11]. EEDLCLPVWGCLWGA (not fully specified (bridges); cysteine pairing not given here, phage clone, Library RBC) [RBC-R14]: no binding [15].

MELWCDSTLMAYDLCGDFNM (phage clone, Library BA) [BA-B39]: no binding [11]; no binding [12]; no binding [16]. MELWCDSTLMAYDLCGDFNM (phage clone, Library BA) [BA-B39]: no binding [13]; no binding [17].

B7: SA11 (peptide)
peptide: Ac-MEDICLPRWGCLWEDD-{code n}
modifications: disulfide 5-11 (inferred); reading uncertain; also: printed as Met-Glu-Asp-Ile-Cys-Leu-Pro-Arg-Trp-Gly-Cys-Leu-Trp-Glu-Asp-Asp
notes: synthesized peptide
B7 gave an IC50 [1] of 1210 nM, an IC50 [2] of 17 nM and an IC50 [3] of 232 nM.

B8: Fc-II peptide KEASCSYWLGELVWCVAGVE (peptide)
peptide: H-KEASCSYWLGELVWCVAGVE-NH2
modifications: disulfide 5-15 (inferred)
notes: Synthetic peptide; disulfide-constrained library origin
With B8 the Ki [18] was 5000 nM.

B9: Fc-I peptide ETQRCTWHMGELVWCEREHN (peptide)
peptide: H-ETQRCTWHMGELVWCEREHN-NH2
modifications: disulfide 5-15 (inferred)
notes: as for B8
B9 showed a Ki [18] of 5000 nM.

MDELAFYCGIWECLMHQEQK (phage clone selected on rabbit SA) [BB]: no binding [5]; no binding [6].

B10: SA12 (peptide)
peptide: Ac-MEDICLPRWGCLWED-{code n}
modifications: disulfide 5-11 (inferred); reading uncertain; also: printed as Met-Glu-Asp-Ile-Cys-Leu-Pro-Arg-Trp-Gly-Cys-Leu-Trp-Glu-Asp
notes: synthesized peptide
Binder B10 has an IC50 [1] of 1760 nM, an IC50 [2] of 13 nM and an IC50 [3] of 205 nM.

DICLPRWGCLW (phage clone, Library RC) [RC-R13]: no binding [14]; no binding [11]; no binding [15].

DLCDVDFCWF (phage clone selected on rabbit SA) [BC]: no binding [5]; no binding [6].

GENWCDWVLLAYDLCGEDNT (phage clone, Library BA) [BA-B37]: no binding [11]; no binding [12]; no binding [16]. GENWCDWVLLAYDLCGEDNT (phage clone, Library BA) [BA-B37]: no binding [13]; no binding [17].
